Positions count from the first letter of the chain named. Values joined by “and” are separate entries in the source; they are usually repeats but may differ in a detail not shown here. Equal values may be shown once. Where no end group is shown, it is not given here.
Assays:
[1] = target: T1, Large fragment (residues 12-390) of trypsin treated DIG-984 (DIG-177 C88>A; C451>A) (Bacillus thuringiensis) (UniProt Q45757); test: cell-based or functional assay
T1 sequence: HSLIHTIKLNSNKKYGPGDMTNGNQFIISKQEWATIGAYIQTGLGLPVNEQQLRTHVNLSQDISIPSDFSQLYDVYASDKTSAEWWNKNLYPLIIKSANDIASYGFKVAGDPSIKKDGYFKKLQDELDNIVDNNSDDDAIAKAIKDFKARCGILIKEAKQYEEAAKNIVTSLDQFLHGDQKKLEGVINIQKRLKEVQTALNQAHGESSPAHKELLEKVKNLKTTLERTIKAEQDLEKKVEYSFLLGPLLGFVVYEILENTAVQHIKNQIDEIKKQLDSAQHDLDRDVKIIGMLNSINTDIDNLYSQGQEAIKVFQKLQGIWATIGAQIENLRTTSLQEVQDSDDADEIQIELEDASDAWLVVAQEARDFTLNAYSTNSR

[2] = target: T2, Large fragment (residues 12-390) of trypsin treated DIG-616 (DIG-177 C162>A) (Bacillus thuringiensis, UniProt Q45757 12-390); test: cell-based or functional assay
T2 sequence: T1 sequence with A77C, C151A

[3] = target: the molecule itself; test: SDS-PAGE of undigested full-length DIG-177 (self-association)
Description: SDS-PAGE was run following the protocol NuPAGE Bis-Tris gels from Invitrogen Life technologies (Protocol Pub. No. MAN0007894 Rev. A.0, Ref. 2). Briefly, samples were mixed with denaturing sample buffer (Invitrogen) plus 5 mM DTT (for reducing PAGE) or minus DTT (for non reducing PAGE) and heated at 95° C. for 5 minutes. The samples were loaded onto Invitrogen Bis/Tris gel. The gel was run with MOPS or MES running buffer under 200 V for ˜43 minutes. The gel was stained with Coomassie blue staining solution (Bio-Rad) for 30 minutes and de-stained with de-staining solution (7% Acetic acid and 5% Methanol in water) until the background cleared.

Binder: NSNLEYKAPENNFMIYWYNNSDWYNNSDWYNN [Carboxy terminal peptide 444-475 of trypsin treated DIG-984 (C451>A)]
- % Mortality [1]: 0% and 21.1% and 15%

Binder: APENNFMIYWYNNSDWYNNSDWYNN [Carboxy terminal peptide 451-475 of trypsin treated DIG-984 (C451>A)]
- % Mortality [1]: 0% and 21.1% and 15%

B1: CTP 1 (Carboxy terminal peptide 1), amino acids 444-475 of SEQ ID NO:2 (peptide)
peptide: NSNLEYKCPENNFMIYWYNNSDWYNNSDWYNN
modifications: also: Cys451 (position 8) disulfide-bonded to Cys88 of LF under non-reducing conditions
- % Mortality [2]: 95%

B2: CTP 2 (Carboxy terminal peptide 2), amino acids 451-475 of SEQ ID NO:2 (peptide)
peptide: CPENNFMIYWYNNSDWYNNSDWYNN
modifications: also: Cys451 (position 1) disulfide-bonded to Cys88 of LF under non-reducing conditions
- % Mortality [2]: 95%

B3: DIG-177 (full length wild type Cry6Aa) (other)
chain: MIIDSKTTLPRHSLIHTIKLNSNKKYGPGDMTNGNQFIISKQEWATIGAYIQTGLGLPVNEQQLRTHVNLSQDISIPSDFSQLYDVYCSDKTSAEWWNKNLYPLIIKSANDIASYGFKVAGDPSIKKDGYFKKLQDELDNIVDNNSDDDAIAKAIKDFKARCGILIKEAKQYEEAAKNIVTSLDQFLHGDQKKLEGVINIQKRLKEVQTALNQAHGESSPAHKELLEKVKNLKTTLERTIKAEQDLEKKVEYSFLLGPLLGFVVYEILENTAVQHIKNQIDEIKKQLDSAQHDLDRDVKIIGMLNSINTDIDNLYSQGQEAIKVFQKLQGIWATIGAQIENLRTTSLQEVQDSDDADEIQIELEDASDAWLVVAQEARDFTLNAYSTNSRQNLPINVISDSCNCSTTNMTSNQYSNPTTNMTSNQYMISHEYTSLPNNFMLSRNSNLEYKCPENNFMIYWYNNSDWYNNSDWYNN
notes: Insecticidal crystal protein; Recombinant from Pseudomonas fluorescens (standard), or expressed in maize, there in part with transit peptides
- binding result [3]: binds
